Tests used:
immunoglobulin G (IgG) = assay: electrochemical displacement from graphene oxide (SWV); settings: Binding buffer, pH and temperature not given in the material; aptamer stock 2.0 uM in sterile deionized water; ferricyanide redox probe; fluorescence ex 480 / …
hemoglobin (Hb) = assay: as above; settings: Binding buffer, pH and temperature not given in the material; aptamer stock 2.0 uM in sterile deionized water; ferricyanide redox probe; fluorescence ex 480 / …

**Q.** Which results are given for “TGCGGTTCGTGCGGTTGTAGTAC [Modified G8-FAM]”?
**A.** binding signal (% current response) (immunoglobulin G (IgG)): 29.5; binding signal (% current response) (hemoglobin (Hb)): 11.7

Reference: paper PMC8002523
